According to patent US9618524B2, “Method, composition, isolation and identification of a plaque particle and related biomarker” (Plaxgen Inc., priority 2012, dated 2017):

B1: Apolipoprotein F (protein)
chain: SLPTEDCENEKEQAVHNVVQLLPGVGTFYNLGTALYYATQNCLGKARERGRDGAIDLGYDLLMTMAGMSGGPMGLAISAALKPALRSGVQQLIQYYQDQKDANISQPETTKEGLRAISDVSDLEETTTLASFISEVVSSAPYWGWAIIKSYDLDPGAGSLEI
B2: Thioredoxin (protein)
chain: VKQIESKTAFQEALDAAGDKLVVVDFSATWCGPCKMIKPFFHSLSEKYSNVIFLEVDVDDCQDVASECEVKCMPTFQFFKKGQKVGEFSGANKEKLEATINELV
B3: Isoform 2 of C4b-binding protein beta chain (protein)
chain: ASDEHCPELPPVDNSIFVAKEVEGQILGTYVCIKGYHLVGKKTLFCNASKEWDNTTTECRLGHCPDPVLVNGEFSSSGPVNVSDKITFMCNDHYILKGSNRSQCLEDHTWAPPFPICKSRDCDPPGNPVHGYFEGNNFTLGSTISYYCEDRYYLVGVQEQQCVDGEWSSALPVCKLIQEAPKPECEKALLAFQESKNLCEAMENFMQQLKESGMTMEELKYSLELKKAELKAKLL
B4: Serpin B3 (protein)
chain: MNSLSEANTKFMFDLFQQFRKSKENNIFYSPISITSALGMVLLGAKDNTAQQIKKVLHFDQVTENTTGKAATYHVDRSGNVHHQFQKLLTEFNKSTDAYELKIANKLFGEKTYLFLQEYLDAIKKFYQTSVESVDFANAPEESRKKINSWVESQTNEKIKNLIPEGNIGSNTTLVLVNAIYFKGQWEKKFNKEDTKEEKFWPNKNTYKSIQMMRQYTSFHFASLEDVQAKVLEIPYKGKDLSMIVLLPNEIDGLQKLEEKLTAEKLMEWTSLQNMRETRVDLHLPRFKVEESYDLKDTLRTMGMVDIFNGDADLSGMTGSRGLVLSGVLHKAFVEVTEEGAEAAAATAVVGFGSSPTSTNEEFHCNHPFLFFIRQNKTNSILFYGRFSSP
B5: Heterogeneous nuclear ribonucleoprotein R (protein)
chain: ANQVNGNAVQLKEEEEPMDTSSVTHTEHYKTLIEAGLPQKVAERLDEIFQTGLVAYVDLDERAIDALREFNEEGALSVLQQFKESDLSHVQNKSAFLCGVMKTYRQREKQGSKVQESTKGPDEAKIKALLERTGYTLDVTTGQRKYGGPPPDSVYSGVQPGIGTEVFVGKIPRDLYEDELVPLFEKAGPIWDLRLMMDPLSGQNRGYAFITFCGKEAAQEAVKLCDSYEIRPGKHLGVCISVANNRLFVGSIPKNKTKENILEEFSKVTEGLVDVILYHQPDDKKKNRGFCFLEYEDHKSAAQARRRLMSGKVKVWGNVVTVEWADPVEEPDPEVMAKVKVLFVRNLATTVTEEILEKSFSEFGKLERVKKLKDYAFVHFEDRGAAVKAMDEMNGKEIEGEEIEIVLAKPPDKKRKERQAARQASRSTAYEDYYYHPPPRMPPPIRGRGRGGGRGGYGYPPDYYGYEDYYDDYYGYDYHDYRGGYEDPYYGYDDGYAVRGRGGGRGGRGAPPPPRGRGAPPPRGRAGYSQRGAPLGPPRGSRGGRGGPAQQQRGRGSRGSRGNRGGNVGGKRKADGYNQPDSKRRQTNNQQNWGSQPIAQQPLQQGGDYSGNYGYNNDNQEFYQDTYGQQWK
B6: Immunoglobulin lambda-like polypeptide 1 (protein)
chain: LLRPTAASQSRALGPGAPGGSSRSSLRSRWGRFLLQRGSWTGPRCWPRGFQSKHNSVTHVFGSGTQLTVLSQPKATPSVTLFPPSSEELQANKATLVCLMNDFYPGILTVTWKADGTPITQGVEMTTPSKQSNNKYAASSYLSLTPEQWRSRRSYSCQVMHEGSTVEKTVAPAECS
B7: Cluster of Keratin, type II cytoskeletal 2 epidermal (protein, UniProt P35908 1-639, looked up)
Keratin, type II cytoskeletal …: MSCQISCKSRGRGGGGGGFRGFSSGSAVVSGGSRRSTSSFSCLSRHGGGGGGFGGGGFGSRSLVGLGGTKSISISVAGGGGGFGAAGGFGGRGGGFGGGSSFGGGSGFSGGGFGGGGFGGGRFGGFGGPGGVGGLGGPGGFGPGGYPGGIHEVSVNQSLLQPLNVKVDPEIQNVKAQEREQIKTLNNKFASFIDKVRFLEQQNQVLQTKWELLQQMNVGTRPINLEPIFQGYIDSLKRYLDGLTAERTSQNSELNNMQDLVEDYKKKYEDEINKRTAAENDFVTLKKDVDNAYMIKVELQSKVDLLNQEIEFLKVLYDAEISQIHQSVTDTNVILSMDNSRNLDLDSIIAEVKAQYEEIAQRSKEEAEALYHSKYEELQVTVGRHGDSLKEIKIEISELNRVIQRLQGEIAHVKKQCKNVQDAIADAEQRGEHALKDARNKLNDLEEALQQAKEDLARLLRDYQELMNVKLALDVEIATYRKLLEGEECRMSGDLSSNVTVSVTSSTISSNVASKAAFGGSGGRGSSSGGGYSSGSSSYGSGGRQSGSRGGSGGGGSISGGGYGSGGGSGGRYGSGGGSKGGSISGGGYGSGGGKHSSGGGSRGGSSSGGGYGSGGGGSSSVKGSSGEAFGSSVTFSFR

Experiments:
Test in all cases: Mass spectroscopy proteomics, semi-quantitative binding affinity of serum proteins (plaqueproteome, Table 2)
Settings in all cases: higher number = stronger affinity
[1] = biological target: T1, Abeta-42 plaque particles (Homo sapiens, UniProt P05067)
T1 construct: Abeta 1-42
How it was run: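 AD patient serum or plasma (50% in PBS) was incubated with Abeta-42 aggregates (30 μg) for 1 h at 37 °C, then stained with Thioflavin S for 30 min. Labeled particles were FACS-sorted, trypsin/Lys-C digested overnight and analyzed by MS/MS. Sequest searched human UniProt; Scaffold/Protein Prophet validated the identifications.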

[2] = system: High Density cholesterol (Chl Large) plaque particles; set-up: species or system human
How it was run: (§1)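 Read-out is MS/MS protein identification (Sequest, strict trypsin, 20 ppm parent tolerance; Scaffold probabilities) of serum proteins bound to flow-sorted cholesterol plaque particles. These particles formed when 50% atherosclerotic serum was incubated with 30 μg cholesterol aggregates for 1 hr at 37° C.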

[3] = system: Low density cholesterol (Chl small) plaque particles; set-up: species or system human
How it was run: as §1

[4] = biological target: T2, alpha-synuclein plaque particles (Homo sapiens, UniProt P37840)
T2 construct: 140 amino acids polypeptide
How it was run: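 AD-subject plasma or serum (800 μL of 50%) mixed with 30 μg preformed alpha-synuclein aggregates for 1 h at 37 °C; Thioflavin S-positive particles isolated by flow sorting. After reduction, acrylamide alkylation and overnight tryptic digestion, serum proteins identified by MS/MS with Sequest and Scaffold.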

[5] = system: Tau plaque particles; set-up: species or system human
How it was run: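 Serum or plasma proteins captured on Thioflavin S-labelled Tau plaque particles (Tau-74, Tau-275 oligomers preformed in PBS at 37° C for 2 h; 1 h co-incubation at 37° C) were isolated by FACS sorting, then tryptically digested and identified by MS/MS (Sequest, human UniProt, strict trypsin).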

Row | Molecule | Semi-quantitative analysis of proteins binding to different plaque particles: Abeta-42 [1] | Semi-quantitative analysis of proteins binding to different plaque particles: Chl Large [2] | Semi-quantitative analysis of proteins binding to different plaque particles: Chl small [3] | Semi-quantitative analysis of proteins binding to different plaque particles: Synuclein [4] | Semi-quantitative analysis of proteins binding to different plaque particles: Tau [5]
1 | B1 | 0 | 0 | 1 | 2 | 1
2 | B2 | 2 | 0 | 0 | 0 | 0
3 | B3 | 0 | 0 | 1 | 0 | 0
4 | B4 | 2 | 0 | 0 | 0 | 0
5 | B5 | 2 | 0 | 0 | 0 | 0
6 | B6 | 0 | 0 | 1 | 0 | 0
7 | B7 | 171 | 14 | 20 | 3 | 24
